Data from paper PMC10784507.

Biological target: holo-SDHA-SDHAF2 complex (preformed from purified proteins) (human) (UniProt P31040)
Experiment: pull-down; preformed holo-SDHA-SDHAF2 (2 µM, His6 on SDHA) incubated with SDHAF4 or its variants, with or without 5 mM fumarate, 30 min 25 °C, then held on Ni-NTA agarose; SDS-PAGE with Coomassie, western blot for the truncated variants

Sequence of SDHAF4^E92N (Q5VUM1 21-108 E92N, stated change not applied): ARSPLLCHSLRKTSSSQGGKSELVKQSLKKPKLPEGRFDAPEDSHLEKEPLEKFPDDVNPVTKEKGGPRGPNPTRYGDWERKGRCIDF
Sequence of holo-SDHA-SDHAF2 complex (preformed from purified proteins) (human) (P31040 43-664, chain 1 of 2): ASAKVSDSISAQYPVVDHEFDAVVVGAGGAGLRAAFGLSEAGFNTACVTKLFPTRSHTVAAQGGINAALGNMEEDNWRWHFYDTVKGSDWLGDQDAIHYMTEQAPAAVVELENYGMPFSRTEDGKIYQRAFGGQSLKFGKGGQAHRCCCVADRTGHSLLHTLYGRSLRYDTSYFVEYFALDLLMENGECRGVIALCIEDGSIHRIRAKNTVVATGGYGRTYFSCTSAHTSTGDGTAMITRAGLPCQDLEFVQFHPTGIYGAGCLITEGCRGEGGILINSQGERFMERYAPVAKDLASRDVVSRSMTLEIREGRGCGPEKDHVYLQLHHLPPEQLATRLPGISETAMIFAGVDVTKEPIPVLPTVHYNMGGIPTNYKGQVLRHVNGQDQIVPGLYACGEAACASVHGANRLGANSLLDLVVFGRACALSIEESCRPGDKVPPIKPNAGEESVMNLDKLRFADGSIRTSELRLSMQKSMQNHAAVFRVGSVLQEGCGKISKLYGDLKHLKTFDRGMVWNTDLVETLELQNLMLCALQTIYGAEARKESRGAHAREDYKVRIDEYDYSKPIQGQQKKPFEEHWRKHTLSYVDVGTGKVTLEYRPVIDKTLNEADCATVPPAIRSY
Sequence of holo-SDHA-SDHAF2 complex (preformed from purified proteins) (human) (Q9NX18 37-166, chain 2 of 2, further chain): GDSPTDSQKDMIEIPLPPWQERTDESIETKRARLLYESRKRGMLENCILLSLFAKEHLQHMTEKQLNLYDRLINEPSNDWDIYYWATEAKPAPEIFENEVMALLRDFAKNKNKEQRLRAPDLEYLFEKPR

percent of SDHAF2 displaced from the SDHA-AF2 complex: 40 to 50%
Substance: SDHAF4^E92N (from UniProt Q5VUM1 21-108) (natural protein)
